Here are results for two substances from publication PMC5689619.

Assay [1] has as its target GST-RAB40C (UniProt Q96S21).
Assay [2] has as its target GST-H-Ras (UniProt P01112).

Consider “GST-GAP (DAB2IP GAP domain) (domain or fragment)”, for which the Kcat/KM ratio (catalytic efficiency) of GAP-stimulated GTP hydrolysis, release of inorganic phosphate amounted to 114 in assay [1] and 229 in assay [2].
Taken in the same sequence, the figures for “GST-GAP R385L (DAB2IP GAP domain, catalytically defective mutant) (domain or fragment)” were 66 and 102.
